From article PMC11964602 (Bioactive Materials, 2025)
Where no end group is shown, it is not given here.

Biological target: SARS-CoV-2 M^pro (Severe acute respiratory syndrome coronavirus 2, UniProt P0DTD1)
Assay: biochemical
Assay type: biochemical
Conditions: for M^pro inhibition (%): 100 µM

Compound	M^pro inhibition (%)	other results
Ac-Tβ4_31-43: peptide metabolite of Ac-Tβ4, amino acids 31-43 (KETIEQEKQAGES; Thymosin beta-4; UniProt P62328 32-44, looked up, fragment)	1.88%	–
CC[C@H](C)[C@H](NC(=O)[C@H](CCC(=O)O)NC(=O)[C@H](C)NC(=O)[C@H](CCSC)NC(=O)[C@H](CC(=O)O)NC(=O)[C@@H]1CCCN1C(=O)[C@H](CCCCN)NC(=O)[C@H](CC(=O)O)NC(=O)[C@H](CO)NC(C)=O)C(=O)N[C@@H](CCC(=O)O)C(=O)N[C@@H](CCCCN)C(=O)N[C@@H](Cc1ccccc1)C(=O)N[C@@H](CC(=O)O)C(=O)N[C@@H](CCCCN)C(=O)N[C@@H](CO)C(=O)N[C@@H](CCCCN)C(=O)N[C@@H](CC(C)C)C(=O)N[C@@H](CCCCN)C(=O)N[C@@H](CCCCN)C(=O)N[C@H](C(=O)N[C@@H](CCC(=O)O)C(=O)N[C@H](C(=O)N[C@@H](CCC(N)=O)C(=O)N[C@@H](CCC(=O)O)C(=O)N[C@@H](CCCCN)C(=O)N[C@@H](CC(N)=O)C(=O)N1CCC[C@H]1C(=O)N[C@@H](CC(C)C)C(=O)N1CCC[C@H]1C(=O)N[C@@H](CO)C(=O)N[C@@H](CCCCN)C(=O)N[C@@H](CCC(=O)O)C(=O)N[C@H](C(=O)N[C@H](C(=O)N[C@@H](CCC(=O)O)C(=O)N[C@@H](CCC(N)=O)C(=O)N[C@@H](CCC(=O)O)C(=O)N[C@@H](CCCCN)C(=O)N[C@@H](CCC(N)=O)C(=O)N[C@@H](C)C(=O)NCC(=O)N[C@@H](CCC(=O)O)C(=O)N[C@@H](CO)C(=O)O)[C@@H](C)CC)[C@@H](C)O)[C@@H](C)O)[C@@H](C)O [Ac-Tβ4, Acetyl-thymosin β4]	–	inhibition at 100 µM (read-out: M^pro inhibition (%)): 7.09%; IC50 against SARS-CoV-2 M^pro (six inhibitor concentrations 100 μM–97.65 nM): no inhibition
Ac-Tβ4_1-15: peptide metabolite of Ac-Tβ4, amino acids 1-15 (Ac-SDKPDMAEIEKFDKS)	34.4%	–
Ac-Tβ4_1-11: peptide metabolite of Ac-Tβ4, amino acids 1-11 (Ac-SDKPDMAEIEK; UniProt P62328 2-12, looked up, fragment)	1.25%	–
Ac-SDKP	–	M^pro inhibition, in vitro screening of Ac-Tβ1-17 fragments (iterative N- and C-terminal fragments of Ac-Tβ1-17): less than 50%
Ac-Tβ4_17-43: peptide metabolite of Ac-Tβ4, amino acids 17-43 (LKKTETQEKNPLPSKETIEQEKQAGES; Thymosin beta-4; UniProt P62328 18-44, looked up, fragment)	25.16%	–
